{"source": "paper PMC7287642", "about": "“SPR Biosensor Based on Polymer Multi-Mode Optical Waveguide and Nanoparticle Signal Enhancement”", "binders": {"B1": {"name": "Apt1 (anti-CRP aptamer) (ssDNA)", "DNA": "GGCAGGAAGACAAACACGATGGGGGGGTATGATTTGATGTGGTTGTTGCATGATCGTGGTTGTGGTGCTGT", "modifications": "5'-biotin"}}, "biological_target": "T1, C-reactive protein (CRP) (human, UniProt P02741 19-224)", "T1 sequence": "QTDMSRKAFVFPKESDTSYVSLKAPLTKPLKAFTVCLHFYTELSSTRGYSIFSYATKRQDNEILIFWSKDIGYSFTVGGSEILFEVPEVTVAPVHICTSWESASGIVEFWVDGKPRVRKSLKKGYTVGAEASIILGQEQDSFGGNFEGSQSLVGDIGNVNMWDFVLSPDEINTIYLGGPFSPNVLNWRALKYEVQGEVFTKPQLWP", "experiment": "SPR (AuNP-enhanced aptamer sandwich); Apt1 on sensor and on 17 nm AuNPs; 2 mM Ca2+, 10 mM Mg2+; response 0.118 nm/nM; no shift detected with CRP alone before AuNPs; 10 mM Tris, 50 mM NaCl, 2 mM CaCl2, 10 mM MgCl2, 5 mM KCl, pH 7.5; CRP 30 min, AuNPs 10 min; readout in H2O; binding temperature not stated", "settings": "protein: native; chain copies: 5"}
{"binder": "B1", "values": [{"measurement": "binding result", "result": "binds"}]}
